We go through 15 substances from patent US6506732B1, “Enzymatic hydrolysate of milk proteins” (Universite Laval, priority 1999, dated 2003).

A short description of the series: Hydrophobicity of peptides of subfraction SF4. It is filed as physicochemical. To be noted: single peptides of subfraction SF4. The protocol: Further separation of the third fraction (F3) on preparative High Pressure Liquid Chromatography (HPLC) using TSK G2000 SW column and a 5 mM ammonium acetate buffer mobile phase adjusted to pH 6.5 gives five subfractions (SF1 to SF5). Composition of subfraction four (SF4), obtained by RP-HPLC using C-18™ column, containing fifteen peptides having average molecular weight of 900 daltons (200 to 1400 daltons) and average hydrophobicity of 11.7 Kcal/mole (5 to 20 Kcal/mole) is presented in Table 2.
For the substance “SPAQILQWQVL (Peptide from enzymatic hydrolysate of milk proteins) [Casein κ 69-79, peptide of SF4]”, the Hydrophobicity stood at 15.5 kcal/mol.
On to “VPLGTQY (Peptide from enzymatic hydrolysate of milk proteins) [Casein α-s1 167-173, peptide of SF4]”, for which the Hydrophobicity is 9.9 kcal/mol.
Substance “LQSW (Peptide from enzymatic hydrolysate of milk proteins) [Casein β 140-143, peptide of SF4]” came in with a Hydrophobicity of 5.3 kcal/mol.
Under “LYQEPVL (Peptide from enzymatic hydrolysate of milk proteins) [Casein β 192-198, peptide of SF4]” stands 9.3 kcal/mol; under “ALPQYL (Peptide from enzymatic hydrolysate of milk proteins) [Casein α-s2 175-180, peptide of SF4]”, 10.9 kcal/mol; under “INNQFLPYPY (Peptide from enzymatic hydrolysate of milk proteins) [Casein κ 51-60, peptide of SF4]”, 19.9 kcal/mol.
For “VLPVPQK (Peptide from enzymatic hydrolysate of milk proteins) [Casein β 170-176, peptide of SF4]” the value was 12.3 kcal/mol; for “VLVL (Peptide from enzymatic hydrolysate of milk proteins) [β-Lactoglobulin 92-95, peptide of SF4]”, 8.2 kcal/mol.
For “LYQGPIVL (Peptide from enzymatic hydrolysate of milk proteins) [Casein α-s2 99-106, peptide of SF4]” the value was 17.7 kcal/mol.
“QGPIVLNPW (Peptide from enzymatic hydrolysate of milk proteins) [Casein α-s2 101-109, peptide of SF4]” came in with a Hydrophobicity of 15.1 kcal/mol.
For “YL: Casein α-s1 91-92, peptide of SF4 (UniProt P02662 106-107, looked up, fragment)” the value was 5.3 kcal/mol; for “LLY (UniProt P02666 206-208, looked up, fragment) [Casein β 191-193, peptide of SF4]”, 7.7 kcal/mol; for “IPIQY (Peptide from enzymatic hydrolysate of milk proteins) [Casein κ 26-30, peptide of SF4]”, 11.3 kcal/mol.
“YGLNYYQQKPVA (Peptide from enzymatic hydrolysate of milk proteins) [Casein κ 38-49, peptide of SF4]” showed a Hydrophobicity of 14.4 kcal/mol.
With “YVPLGTQY (Peptide from enzymatic hydrolysate of milk proteins) [Casein α-s1 166-173, peptide of SF4]”, the Hydrophobicity stood at 12.7 kcal/mol.
